Values quoted from earlier work in paper PMC9849996.

Molecular target: ROS-GC1 (Bos taurus) (UniProt P55203)
Test: SPR; given as Ka

UniProt P55203, sequence (P55203 57-1110): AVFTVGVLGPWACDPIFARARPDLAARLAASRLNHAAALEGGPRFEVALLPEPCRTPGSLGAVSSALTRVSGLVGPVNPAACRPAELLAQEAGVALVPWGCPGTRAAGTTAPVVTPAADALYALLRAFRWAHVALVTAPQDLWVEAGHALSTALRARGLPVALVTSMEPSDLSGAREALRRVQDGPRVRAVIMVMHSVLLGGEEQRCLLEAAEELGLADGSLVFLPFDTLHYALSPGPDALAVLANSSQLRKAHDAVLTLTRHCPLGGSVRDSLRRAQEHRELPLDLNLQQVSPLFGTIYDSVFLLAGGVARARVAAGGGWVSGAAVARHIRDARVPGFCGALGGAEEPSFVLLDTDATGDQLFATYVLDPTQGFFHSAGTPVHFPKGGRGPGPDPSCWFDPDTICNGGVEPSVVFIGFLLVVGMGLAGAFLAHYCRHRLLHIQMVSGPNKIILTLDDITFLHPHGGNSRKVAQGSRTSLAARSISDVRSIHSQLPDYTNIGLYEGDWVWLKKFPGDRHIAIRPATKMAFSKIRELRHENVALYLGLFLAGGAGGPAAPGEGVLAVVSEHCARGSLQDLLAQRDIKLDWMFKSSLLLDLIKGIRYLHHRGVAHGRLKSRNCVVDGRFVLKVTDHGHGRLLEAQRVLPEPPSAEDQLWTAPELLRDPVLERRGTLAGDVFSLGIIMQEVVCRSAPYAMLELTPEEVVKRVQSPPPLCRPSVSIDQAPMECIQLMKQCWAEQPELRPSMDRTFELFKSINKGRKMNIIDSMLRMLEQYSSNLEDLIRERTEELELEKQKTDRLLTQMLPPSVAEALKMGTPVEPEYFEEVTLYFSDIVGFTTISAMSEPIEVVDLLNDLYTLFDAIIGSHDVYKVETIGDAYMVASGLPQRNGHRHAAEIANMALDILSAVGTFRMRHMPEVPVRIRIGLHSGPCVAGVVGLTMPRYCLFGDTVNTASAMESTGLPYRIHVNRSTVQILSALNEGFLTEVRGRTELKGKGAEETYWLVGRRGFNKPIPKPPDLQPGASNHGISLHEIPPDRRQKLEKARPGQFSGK

- Kd: 426 nM
Substance: frequenin (from UniProt Q2V8Y7)
